Assays:
[1] = target: T1, human CD200R1 recombinant protein (construct not stated) (human, UniProt Q8TD46 27-266, limits assumed); assay: ELISA on human CD200R1, normalized absorbance at 450 nm, 0.0192-300 nM; panel 'Human CD200R1'
T1 sequence (looked up): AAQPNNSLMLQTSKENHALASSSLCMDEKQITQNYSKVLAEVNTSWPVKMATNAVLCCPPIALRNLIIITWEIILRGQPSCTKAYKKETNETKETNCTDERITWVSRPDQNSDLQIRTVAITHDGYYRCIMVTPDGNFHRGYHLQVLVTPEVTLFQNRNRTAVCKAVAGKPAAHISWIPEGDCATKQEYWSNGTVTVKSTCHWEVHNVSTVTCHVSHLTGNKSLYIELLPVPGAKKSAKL

[2] = target: T2, human CD200R1 expressed on cells (Jurkat-CD200R1, U937-CD200R1, HH cells) (human, UniProt Q8TD46 25-348); assay: flow cytometry, Jurkat-CD200R cells
T2 construct: whole, on cells; also called HH (CRL-2105); cell surface-expressed CD200R1
T2 sequence (looked up): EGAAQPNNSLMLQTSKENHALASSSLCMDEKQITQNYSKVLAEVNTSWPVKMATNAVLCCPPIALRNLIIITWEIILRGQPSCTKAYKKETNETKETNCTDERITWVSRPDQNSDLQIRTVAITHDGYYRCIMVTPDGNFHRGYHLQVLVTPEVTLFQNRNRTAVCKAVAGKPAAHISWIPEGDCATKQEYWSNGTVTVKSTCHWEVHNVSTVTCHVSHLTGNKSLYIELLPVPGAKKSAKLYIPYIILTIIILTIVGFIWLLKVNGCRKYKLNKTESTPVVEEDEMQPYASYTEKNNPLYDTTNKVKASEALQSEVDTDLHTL

[3] = target: T2, human CD200R1 expressed on cells …; assay: flow cytometry, HH cells
Method: (§1) Two additional wells were treated with 10 μl of mouse IgG1K (BD, #555751) and 5 μl of commercial CD200R1 antibody (Biolegend, #329308) to determine CD200R1 expression on the cell line surface for cell quality control.
(§2) The antibodies were serially diluted 10-fold from a maximum concentration of 100 nM to 10 nM, 1 nM, […], and were added to the pre-seeded cells. After reaction for 1 hour at 4° C., the cells were treated with Alexa-647 goat anti-human IgG (H+L) cross-adsorbed secondary antibody (Invitrogen, #A21445) and incubated for an additional 30 minutes at 4° C. After washing twice with FACS buffer, flow cytometry was performed using a Novocyte Flow cytometer (Agilent). Using GraphPad Prism software, the EC₅₀ was determined using a nonlinear graph model of log (agonist) vs. response-variable slope, as shown in Table 32.

[4] = target: T2, human CD200R1 expressed on cells …; assay: cell-based or functional assay
[5] = target: T3, monkey CD200RLa (Sino Biological, 11576-C02H) recombinant protein (monkey (cyno), UniProt A0A2K5W6R0 30-246); assay: ELISA, plate-bound monkey CD200RLa (2 ug/mL), antibody 0.0192-300 nM, O.D 450 nm; panel 'recombinant cynomolgus CD200RLa/Fc'
T3 construct: Bought; construct not described; also called cyno CD200RLa
T3 sequence: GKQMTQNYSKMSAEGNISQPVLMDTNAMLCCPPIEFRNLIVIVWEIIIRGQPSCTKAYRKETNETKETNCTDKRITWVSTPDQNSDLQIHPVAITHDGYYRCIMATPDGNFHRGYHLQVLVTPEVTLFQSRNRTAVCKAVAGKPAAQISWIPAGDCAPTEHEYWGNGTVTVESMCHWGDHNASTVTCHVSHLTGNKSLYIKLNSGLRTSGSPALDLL
Method: 96-well plates were coated with human CD200RLa (Sino Biological, 11620-H08H) and monkey CD200RLa (Sino Biological, 11576-C02H) recombinant proteins at a concentration of 2 μg/mL at 4° C. for 16 hours, and blocked with 3% skim milk for 1 hour. […] Color was developed with a TMB substrate solution (Thermo Scientific, 34029, 1-Step™ Ultra TMB-ELISA Substrate Solution). The color reaction was stopped with stop solution (Invitrogen, SS04, ELISA Stop Solution).

[6] = target: T4, human CD200RLa (Sino Biological, 11620-H08H) recombinant protein (human, UniProt Q6Q8B3 24-239); assay: ELISA, plate-bound human CD200RLa (2 ug/mL), antibody 0.0192-300 nM, O.D 450 nm; panel 'recombinant human CD200RLa'
T4 construct: Bought; construct not described
T4 sequence (looked up): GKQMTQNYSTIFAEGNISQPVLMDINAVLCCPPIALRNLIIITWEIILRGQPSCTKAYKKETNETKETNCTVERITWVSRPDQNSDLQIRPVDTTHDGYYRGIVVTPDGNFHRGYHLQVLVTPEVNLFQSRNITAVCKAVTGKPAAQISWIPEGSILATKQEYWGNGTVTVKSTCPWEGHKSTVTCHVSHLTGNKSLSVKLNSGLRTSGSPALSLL
Procedure, shortened: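 Plates coated overnight (16 h, 4° C) with human or cynomolgus CD200RLa recombinant protein, blocked with 3% skim milk; bound antibody detected by TMB colour development, reaction stopped before reading.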

[7] = target: T2, human CD200R1 expressed on cells …; assay: flow cytometry, U937-CD200R cells
Method: as §1, §2

binding result [5]: no binding (tested: 300 nM)
binding result [6]: no binding (tested: 300 nM)
B1: P001009 (IgG) (antibody, V domains shown)
VH: EVQLLESGGGLVQPGGSLRLSCAASGFTFSSYDMSWVRQAPGKGLEWVSWISHGGGSIYYADSVKGRFTISRDNSKNTLYLQMNSLRAEDTAVYYCARDAPAYSAPLFDYWGQGTLVTVSS
VL: QSVLTQPPSASGTPGQRVTISCSGSSSNIGNNAVNWYQQLPGTAPKLLIYYDSNRPSGVPDRFSGSKSGTSASLAISGLRSEDEADYYCAAWDDSLSGYVFGGGTKLTVL
notes: also called P001009 WT; P001009 wt
EC50 (read off the curve) [1]: ~2000 pM
EC50 [2]: 220 pM
EC50 [3]: 190 pM
IC50 (nM) of IL-6 inhibition, LPS-treated U937-CD200R1 cells [4]: 0.35 nM
IC50 (nM) of TNF-α inhibition, LPS-treated U937-CD200R1 cells [4]: 0.62 nM
EC50 [7]: 410 pM

Reference: US20260263521A1 (AIMED BIO, published 2026)
